In patent US20100317723, “Nucleolin Specific Aptamer and Use thereof” (POSTECH ACADEMY-INDUSTRY FOUDATION, published 2010) one finds binding signal data, which are given here for eight molecules.

The target in data set [1] is T1, Nucleolin (cell-surface, human cancer cell lines) (UniProt P19338 P19338:2-710). In words: HeLa cell fluorescence. As to conditions: tags: endogenous on HeLa, MDA-MB231, HepG2, AGS, OVCAR-3, U87MG cells (ATCC); label: 5'-Cy3; G4. As for the experimental part: (§1) To determine the targeting efficiency of the cancers, fluorescence intensities of forty-seven Cy3-labeled BzdU-containing GRO29A and eighteen Cy3-labeled NapdU-containing GRO29A compounds were quantified to evaluate their targeting efficiency at C6 cells by the Varioskan Flash spectral scanning multimode reader (Thermo Fisher Scientific Inc. Waltham, Mass.; excitation: 535 nm, scanning wavelength: 570 nm with a band width: 12 nm). C6 cells were seeded 1×10⁵ cell density onto Magne to FACTION 24 plate (Chemicell, GmbH, Germany) and caring at a 5% CO₂-humidified chamber. […] These cells were collected by PBS (1×) (120 μl) and transferred into 96-well plate (Chemicell, GmbH, Germany) for measurement of fluorescence intensity (100 μl).
(§2) To test functional activity of BzdU-containing GRO29A, the compounds numbers 1642-39, 1642-51 and 1642-19, in other cancer cells, the inventors first extended cancer targeting assay by selecting another cancer cells, HeLa (human cervix cancer cell line, ATCC), and a normal healthy cell line, CHO (chinese hamster ovary cell line, ATCC). The measurement of fluorescence intensity was performed as described above for C6 cells.

The target of data set [2] is T2, Nucleolin (cell-surface, C6 rat glioma cells) (UniProt P13383 P13383:1-713). In words: C6 cell fluorescence, 20 nM; confirmed by confocal. The settings on record: tags: endogenous on C6 cells (ATCC); label: 5'-Cy3; G4. As for the experimental part: as §1, with “chamber. After 24 hours of grown, these seeded cells were incubated in DMEM (Dubelocos' modified essential media) with 20 nM of Cy3-labeled GRO29A or AS1411, or 20 nM of each of the Cy3-labeled modified dU-containing GRO29A or AS1411 compounds at for 30 minute at 4° C. for decreasing non-specific binding during 30 min and rinsed by PBS (1×), then replaced to 200 μl Tris buffer, and then treated with each of 47 different compounds (20 pmole).” for “chamber.”, “μl). […]” for “μl).”

For data set [3], the target named is T1, Nucleolin (cell-surface, human cancer …). In words: HeLa cell fluorescence; reference. The settings on record: tags: endogenous on HeLa, MDA-MB231, HepG2, AGS, OVCAR-3, U87MG cells (ATCC); label: 5'-Cy3; G4. As for the experimental part: as §1, §2
Data set [4] addresses T2, Nucleolin (cell-surface, C6 rat glioma …). In words: cell fluorescence and confocal on C6 cells, 20 nM, 4 C; reference. The settings on record: tags: endogenous on C6 cells (ATCC); label: 5'-Cy3; G4. As for the experimental part: as §1, with “chamber. After 24 hours of grown, these seeded cells were incubated in DMEM (Dubelocos' modified essential media) with 20 nM of Cy3-labeled GRO29A or AS1411, or 20 nM of each of the Cy3-labeled modified dU-containing GRO29A or AS1411 compounds at for 30 minute at 4° C. for decreasing non-specific binding during 30 min and rinsed by PBS (1×), then replaced to 200 μl Tris buffer, and then treated with each of 47 different compounds (20 pmole).” for “chamber.”, “μl). […]” for “μl).”

For data set [5] the target is unchanged. In words: C6 cell fluorescence, about 1.5 fold or more, 20 nM. The settings on record: tags: endogenous on C6 cells (ATCC); label: 5'-Cy3; G4. As for the experimental part: (§3) To determine the targeting efficiency of the cancers, fluorescence intensities of forty-seven Cy3-labeled BzdU-containing GRO29A and eighteen Cy3-labeled NapdU-containing GRO29A compounds were quantified to evaluate their targeting efficiency at C6 cells by the Varioskan Flash spectral scanning multimode reader (Thermo Fisher Scientific Inc. Waltham, Mass.; excitation: 535 nm, scanning wavelength: 570 nm with a band width: 12 nm). C6 cells were seeded 1×10⁵ cell density onto Magne to FACTION 24 plate (Chemicell, GmbH, Germany) and caring at a 5% CO₂-humidified chamber. After 24 hours of grown, these seeded cells were incubated in DMEM (Dubelocos' modified essential media) with 20 nM of Cy3-labeled GRO29A or AS1411, or 20 nM of each of the Cy3-labeled modified dU-containing GRO29A or AS1411 compounds at for 30 minute at 4° C. for decreasing non-specific binding during 30 min and rinsed by PBS (1×), then replaced to 200 μl Tris buffer, and then treated with each of 47 different compounds (20 pmole). Then, seeded cells was washed with PBS (phosphate buffered saline) two times each for 10 min at RT using shaking incubation (30 rpm) to remove the unbound Cy3-labeled modified dU-containing GRO29A or AS1411 compounds, and subjected to trypsinization to detach from the plate surface. These cells were collected by PBS (1×) (120 μl) and transferred into 96-well plate (Chemicell, GmbH, Germany) for measurement of fluorescence intensity (100 μl).

Data set [6] shares this target. In words: C6 cell fluorescence, about 1.5 fold or more, 20 nM; confirmed by confocal. As to conditions: tags: endogenous on C6 cells (ATCC); label: 5'-Cy3; G4. As for the experimental part: as §3, with “Then, seeded cells was washed with PBS (phosphate buffered saline) two times each for 10 min at RT using shaking incubation (30 rpm) to remove the unbound Cy3-labeled modified dU-containing GRO29A or AS1411 compounds, and subjected to trypsinization to detach from the plate surface.” left out, “μl). […]” for “μl).”

T2 sequence (P13383 whole entry, one chain of several): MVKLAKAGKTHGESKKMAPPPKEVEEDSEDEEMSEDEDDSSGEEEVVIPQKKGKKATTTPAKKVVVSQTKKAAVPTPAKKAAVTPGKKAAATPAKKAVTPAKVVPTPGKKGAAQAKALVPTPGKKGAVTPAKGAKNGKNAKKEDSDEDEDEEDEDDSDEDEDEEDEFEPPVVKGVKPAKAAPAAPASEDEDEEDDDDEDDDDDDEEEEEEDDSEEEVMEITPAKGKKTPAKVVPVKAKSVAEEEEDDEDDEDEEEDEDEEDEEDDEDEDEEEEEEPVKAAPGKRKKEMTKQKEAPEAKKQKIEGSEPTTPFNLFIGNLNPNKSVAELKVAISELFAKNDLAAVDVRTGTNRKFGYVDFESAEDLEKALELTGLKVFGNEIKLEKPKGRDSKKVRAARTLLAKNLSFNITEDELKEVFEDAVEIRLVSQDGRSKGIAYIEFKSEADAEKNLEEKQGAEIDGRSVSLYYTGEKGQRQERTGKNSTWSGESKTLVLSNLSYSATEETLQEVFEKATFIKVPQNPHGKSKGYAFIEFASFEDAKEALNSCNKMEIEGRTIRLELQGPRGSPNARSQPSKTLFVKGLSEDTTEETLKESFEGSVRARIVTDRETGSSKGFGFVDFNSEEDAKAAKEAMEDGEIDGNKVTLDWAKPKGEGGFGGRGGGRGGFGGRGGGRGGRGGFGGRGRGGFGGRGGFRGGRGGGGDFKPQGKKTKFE
T1 sequence (P19338 2-710, one chain of several): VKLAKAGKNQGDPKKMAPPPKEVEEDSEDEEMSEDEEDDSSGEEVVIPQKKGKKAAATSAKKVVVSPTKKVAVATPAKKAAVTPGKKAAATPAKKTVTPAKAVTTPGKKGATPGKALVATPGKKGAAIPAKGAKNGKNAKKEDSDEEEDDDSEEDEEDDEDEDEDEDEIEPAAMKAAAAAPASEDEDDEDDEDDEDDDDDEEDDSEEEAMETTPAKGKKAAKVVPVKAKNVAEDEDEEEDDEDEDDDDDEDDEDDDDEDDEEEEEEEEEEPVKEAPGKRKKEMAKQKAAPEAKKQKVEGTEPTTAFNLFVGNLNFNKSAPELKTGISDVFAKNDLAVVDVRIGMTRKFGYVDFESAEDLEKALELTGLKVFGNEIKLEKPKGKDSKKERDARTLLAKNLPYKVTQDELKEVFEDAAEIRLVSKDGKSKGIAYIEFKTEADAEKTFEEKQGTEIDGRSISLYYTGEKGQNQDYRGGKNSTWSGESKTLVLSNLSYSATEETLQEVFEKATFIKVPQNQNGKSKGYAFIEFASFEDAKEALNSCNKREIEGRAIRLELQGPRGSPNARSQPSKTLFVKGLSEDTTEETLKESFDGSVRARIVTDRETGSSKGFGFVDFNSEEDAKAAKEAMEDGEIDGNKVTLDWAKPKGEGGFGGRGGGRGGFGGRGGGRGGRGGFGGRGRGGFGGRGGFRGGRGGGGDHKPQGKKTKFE

For TTTGGTGGTGGTGGTTGTGGTGGTGGTGG (ssDNA, BzdU at T27) [1642-19], the binding signal in data set [1] was approximately 2.3 fold vs GRO29A; in data set [2] it was approximately 2.5 fold vs GRO29A.
As for TTTGGTGGTGGTGGTTGTGGTGGTGGTGG (ssDNA) [GRO29A (Cy3-1641-3)], the binding signal in data set [3] and in data set [4] was 1 fold each time.
In data set [5], TTTGGTGGTGGTGGTTGTGGTGGTGGTGG (ssDNA, BzdU at T9, T27) [1642-30] gave a binding signal not below 1.5 fold vs GRO29A.
The same measure, in the same setting: the figure for TTTGGTGGTGGTGGTTGTGGTGGTGGTGG (ssDNA, BzdU at T12) [1642-13] is not below 1.5 fold vs GRO29A.
With TTTGGTGGTGGTGGTTGTGGTGGTGGTGG (ssDNA, BzdU at T1, T3, T15, T16) [1642-51], the binding signal in data set [6] was not below 1.5 fold vs GRO29A.
Turning to TTTGGTGGTGGTGGTTGTGGTGGTGGTGG (ssDNA, BzdU at T6) [1642-11], in data set [5], the binding signal is not below 1.5 fold vs GRO29A.
TTTGGTGGTGGTGGTTGTGGTGGTGGTGG (ssDNA, BzdU at T15, T16) [1642-39] gave a binding signal in data set [6] not below 1.5 fold vs GRO29A.
The molecule TTTGGTGGTGGTGGTTGTGGTGGTGGTGG (ssDNA, BzdU at T2, T3, T15, T16) [1642-49] yielded a binding signal in data set [5] not below 1.5 fold vs GRO29A.
